The test system of experiment [1] is chemically acetylated cytochrome c. As to the kind of experiment: titrated acetate release assay of deacetylation activity. The class given is biochemical. Conditions: in vitro, in the presence and absence of NAD. On the procedure: (§1) The activity of these proteins was determined in vitro using either a ^14C-nicotinamide release assay or a titrated acetate release assay.
Recombinant GST-SIRT2 deacetylation activity was tested on chemically acetylated cytochrome c in the presence and absence of NAD. Deacetylation activity was determined in vitro using a titrated acetate release assay.
Recombinant GST-SIRT3 deacetylation activity was tested on chemically acetylated cytochrome c in the presence and absence of NAD. The recombinant SIRT3 was a fragment of human SIRT3 lacking the first 100 amino acids of the N-terminus of full length human SIRT3. Deacetylation activity was determined in vitro using a titrated acetate release assay.

The test system is the same in experiment [2]. As to the kind of experiment: 14C-nicotinamide release assay of deacetylation activity. The class given is biochemical. To be noted: in vitro, enzyme from pull down of 293T cell extracts, GFP as control. Here is the method: as §1
Cell derived GST-SIRT3 deacetylation activity was tested on chemically acetylated cytochrome c. The SIRT3 was derived from “pull down” 293T extracts.
Deacetylation activity was determined in vitro using a ^14C-nicotinamide release assay. Deacetylation was determined for GFP (control) with chemically acetylated cytochrome c, SIRT3-GFP with chemically acetylated cytochrome c, and SIRT3-GFP with histone 4.

B1: recombinant GST-SIRT2: recombinant GST fusion of human SIRT2, NAD-dependent deacetylase (protein)
chain: MAEPDPSHPLETQAGKVQEAQDSDSDSEGGAAGGEADMDFLRNLFSQTLSLGSQKERLLDELTLEGVARYMQSERCRRVICLVGAGISTSAGIPDFRSPSTGLYDNLEKYHLPYPEAIFEISYFKKHPEPFFALAKELYPGQFKPTICHYFMRLLKDKGLLLRCYTQNIDTLERIAGLEQEDLVEAHGTFYTSHCVSASCRHEYPLSWMKEKIFSEVTPKCEDCQSLVKPDIVFFGESLPARFFSCMQSDFLKVDLLLVMGTSLQVQPFASLISKAPLSTPRLLINKEKAGQSDPFLGMIMGLGGGMDFDSKKAYRDVAWLGECDQGCLALAELLGWKKELEDLVRREHASIDAQSGAGVPNPSTSASPKKSPPPAKDEARTTEREKPQ
modifications: left off: a dimerising Fc or GST
notes: recombinant GST fusion of human SIRT2, NAD-dependent deacetylase
For the molecule B1, the “deacetylation activity on chemically acetylated cytochrome c” value (“deacetylation activity” for short) in experiment [1] is given as “deacetylates cytochrome c in a NAD dependent manner”.

B2: cell derived SIRT3: SIRT3 enzyme derived from pull down of 293T cell extracts (protein)
chain: MAFWGWRAAAALRLWGRVVERVEAGGGVGPFQACGCRLVLGGRDDVSAGLRGSHGARGEPLDPARPLQRPPRPEVPRAFRRQPRAAAPSFFFSSIKGGRRSISFSVGASSVVGSGGSSDKGKLSLQDVAELIRARACQRVVVMVGAGISTPSGIPDFRSPGSGLYSNLQQYDLPYPEAIFELPFFFHNPKPFFTLAKELYPGNYKPNVTHYFLRLLHDKGLLLRLYTQNIDGLERVSGIPASKLVEAHGTFASATCTVCQRPFPGEDIRADVMADRVPRCPVCTGVVKPDIVFFGEPLPQRFLLHVVDFPMADLLLILGTSLEVEPFASLTEAVRSSVPRLLINRDLVGPLAWHPRSRDVAQLGDVVHGVESLVELLGWTEEMRDLVQRETGKLDGPDK
modifications: left off: large carriers
notes: SIRT3 enzyme derived from pull down of 293T cell extracts
B2: the “deacetylation activity” value in experiment [2] was “deacetylates cytochrome c”.

B3: recombinant GST-SIRT3: recombinant GST fusion of a fragment of human SIRT3 lacking the first 100 amino acids of the N-terminus (protein)
chain: SISFSVGASSVVGSGGSSDKGKLSLQDVAELIRARACQRVVVMVGAGISTPSGIPDFRSPGSGLYSNLQQYDLPYPEAIFELPFFFHNPKPFFTLAKELYPGNYKPNVTHYFLRLLHDKGLLLRLYTQNIDGLERVSGIPASKLVEAHGTFASATCTVCQRPFPGEDIRADVMADRVPRCPVCTGVVKPDIVFFGEPLPQRFLLHVVDFPMADLLLILGTSLEVEPFASLTEAVRSSVPRLLINRDLVGPLAWHPRSRDVAQLGDVVHGVESLVELLGWTEEMRDLVQRETGKLDGPDK
modifications: left off: a dimerising Fc or GST
notes: recombinant GST fusion of a fragment of human SIRT3 lacking the first 100 amino acids of the N-terminus
As to B3, the “deacetylation activity” value in experiment [1] is reported as “deacetylates cytochrome c in a NAD dependent manner”.
